Measured values from publication PMC12394453.
Several values for one entry are separate records, joined by “and”; a condition that tells them apart may be missing. Equal entries are not always repeated.

Target: HeV-G (wild-type Hendra virus attachment glycoprotein G, soluble recombinant) (Hendra virus) (UniProt O89343)
Assay: SEC; oligomeric states of the purified G protein (Supplementary Fig. 7)

Sequence of HeV-G (wild-type Hendra virus attachment glycoprotein G, soluble recombinant) (O89343 71-604 limits assumed): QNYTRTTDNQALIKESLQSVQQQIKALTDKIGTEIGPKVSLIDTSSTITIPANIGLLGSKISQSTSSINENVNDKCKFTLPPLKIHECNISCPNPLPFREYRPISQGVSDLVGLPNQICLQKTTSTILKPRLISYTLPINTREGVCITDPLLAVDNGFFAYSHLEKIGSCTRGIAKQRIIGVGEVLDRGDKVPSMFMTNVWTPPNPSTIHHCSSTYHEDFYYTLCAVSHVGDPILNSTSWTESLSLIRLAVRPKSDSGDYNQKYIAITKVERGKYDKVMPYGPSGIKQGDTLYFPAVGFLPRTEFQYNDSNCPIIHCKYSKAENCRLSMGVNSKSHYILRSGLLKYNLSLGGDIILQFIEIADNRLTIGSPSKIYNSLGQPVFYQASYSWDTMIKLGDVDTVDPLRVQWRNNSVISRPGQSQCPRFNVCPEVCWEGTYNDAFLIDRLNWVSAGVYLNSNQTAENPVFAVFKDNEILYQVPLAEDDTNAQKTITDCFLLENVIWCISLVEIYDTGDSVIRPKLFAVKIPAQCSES

## HeV-G (wild-type Hendra virus attachment glycoprotein G, soluble recombinant) (from UniProt O89343 1-604) (natural protein)
  stoichiometry N: 4 and 2
